Results: the RNAGym collection of RNA variant scans (doi:10.1073/pnas.2313332121)

B1: TPR t1 (parent)
chain: GACCAAUCUGCCCUCAGAGCUCGAGAACAUCUUCGGAUGCAGAGGAGGCAGGCUUCGGUGGCGCGAUAGCGCCAACGUCCUCAACCUCCAAUGCAUCCCACCACAUGAUGAUGCCUGAAGAGCCUUGGUUUUUUG

Variants of: B1
Experiment: polymerase ribozyme fitness, log enrichment relative to wild type (log ratio); higher = more active; in vitro selection for triplet polymerase activity
Procedure, shortened: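 Fitness compares each genotype's enrichment to that of the wild type on a logarithmic scale, averaging replicates with inverse-variance weights. The logarithm is base 2. Enrichment came from Illumina sequencing of input and output libraries after one triplicate round of in vitro selection, which included frozen incubation at −7 °C, of PCR-built, transcribed mutant libraries of each subunit of a heterodimeric triplet polymerase ribozyme. Only genotypes with ≥10 input reads and ≥1 read per output were kept.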

Row | Variant | polymerase ribozyme fitness (log ratio)
1 | G42A G45A A50G G113U U129A G135A | -3.94
2 | A43C C62G G120A | -4.98
3 | G42A U78C | -1.87
4 | G42C C49A G69U A90U U109G G128U | -6.14
5 | A41U U81A A121C | -0.475
6 | A43C G48U U54A G77U G120A G135A | -2.07
7 | G42A G47A | -2.34
8 | G42A G77A | -2.61
9 | G42C C56A G122A | -2.92
10 | G42A C85G G93A | -3.19
11 | G42C A50C A105G | -5.66
12 | G42U G52C C97G C115U | -6.37
13 | G42U G71A U92A | -3.78
14 | A43C G63C | -3.41
15 | G42C C73G C79U A95G U129C | -3.37
16 | G42A U55C A95C U109A | -6.59
17 | G42A C88A A121U | 0.406
18 | A43C G45C G63C G117U A118U G135A | -5.43
19 | G42C C49A U92C G117A G122A | -4.11
20 | G42A C62G G69C C99A A111G C115U U129C | -6.83
21 | G42A C70A C89A C124U | -4
22 | G42C G52U | -2.21
23 | G42U U87G | -0.907
24 | G42A G69A | -5.77

Row | Variant | polymerase ribozyme fitness (log ratio)
25 | G42U G63A G93U | -3.94
26 | G42A U106C | -2.12
27 | G42U U87C C123A U131C | -0.903
28 | G42A U54A C72G C86U G110A C124G | -4.88
29 | G42C A50U C82A | -2.49
30 | G42C C80U U92G | -3.41
31 | A43C G71U C80U G110A G113U | -7.29
32 | G42A C114U | -2.35
33 | G42A C53G | -2.5
34 | G42A C53U | -2.41
35 | A41U U130C | -1.35
36 | A43C G60A | -2.3
37 | G42C C49U G63A G120A G128U | -5.69
38 | G42C C49U G128A | -5.33
39 | G42A G127U | -2.7
40 | G42U G48U | -3.89
41 | A43C C56U | -2.57
42 | G42A C56U C80U | -3.08
43 | A41U U129A | -2.58
44 | A43C G44C | -1.05
45 | G42C C56G C72A G77C A100U U132A | -3.99
46 | G42U U59A G69U | -0.413
47 | G42C U55C G60A C124G U132A | 0.349
48 | G42A C73A C104U G128A | -3.49

Row | Variant | polymerase ribozyme fitness (log ratio)
49 | A43C C49G A84G C115U G135U | -6.22
50 | A43C G69C | -4.47
51 | G42A C72U | -2.31
52 | A41U U54C A75G C88A U133A | -1.96
53 | G42C G61A A121C U133G | 0.579
54 | G42U C72U G93U A118G | -4.06
55 | G42C G71U U96G | -3.01
56 | G42A C56G C85G G93A G120C | -3.01
57 | G42U G63A C89U | -3.28
58 | G42U C73A U106C | -1.97
59 | G42C C115U G120U U129G | -4.74
60 | G42C G60A G120U | -2.21
61 | G42A C56A U96G | -2.79
62 | G42U C72U U125A | -1.92
63 | G42U G135U | -1.66
64 | G42C C53U G93A | -3.13
65 | G42A G110A | -2.55
66 | G42C A43G A84C C114A | -2
67 | G42A G69C C124U | -2.56
68 | G42U G69A | -5.35
69 | G42U C88A U92A G120A | -1.96
70 | G42U C49U G61A | -1.64
71 | G42C G69U C70G | -1.55
72 | G42C C53A C85U C114G C124U U133G | -3.5

Row | Variant | polymerase ribozyme fitness (log ratio)
73 | G42C C56G C88G C114A | -5.36
74 | G42C G48U C70A G120U | -5.45
75 | G42U U54G C76U A111G | -2.36
76 | G42A A74C G120C | -2.11
77 | G42U C79U A100U | -2.8
78 | G42C G57C A66C | -4.36
79 | G42U G57U C85A | -2.51
80 | G42A G60U C82U U112G G127C | -3.6
81 | G42U U106A | -1.56
82 | G42A C85G C86G U129C | -4.79
83 | G42A A74U A119G | -1.81
84 | G42A C49G | -1.71
85 | A43C C94U | -2.66
86 | A43C C94G | -4.54
87 | G42C G44U A74C C99A C123G | -6.31
88 | G42A C53U C64U U106A A119G | -1.87
89 | G42C C114A | -2.26
90 | G42C C72A | -1.16
91 | G42C C72G | -1.76
92 | A41U U87A | -1.14
93 | G42U A46U U96G | -2.26
94 | G42A C101U | -1.9
95 | G42U G47U G60A U112A C114U G117C | -5.02
96 | G42A C72A C104A U130C | -5.17

Row | Variant | polymerase ribozyme fitness (log ratio)
97 | G42C C82U | -1.49
98 | G42A G71A | -3.35
99 | G42U A50G G57C G61U C80A C82A G120A | -4.58
100 | G42U G45U C88G A90G | -1.09
101 | G42C G120U | -1.69
102 | G42C G127A | -2.97
103 | G42U C56G C123U | -0.406
104 | A41U U54C C124U | 1
105 | G42U G47U G120U | -1.57
106 | G42A A121U | 0.623
107 | G42A G61C C114U G117C | -5.25
108 | G42A U54G A103G U109A G117C | -6.58
109 | G42U G58C U87C G120A C123G U125A | 0.38
110 | A41U U78C | -1.1
111 | G42C C56U U81A C124G U132A | -0.851
112 | G42U G48A C104U | -0.902
113 | G42U G71A | -2.43
114 | G42C C56G C72G C88G C114A | -7.1
115 | A43C G117U | -5
116 | A43C C56A U59A C72U | -3.55
117 | G42C A66U G120A | -2.6
118 | G42C C88U U106A A121C U125A | -1.81
119 | G42U G69C G120U | -3.45
120 | A43C C49U G63U A66C | -5.38

Row | Variant | polymerase ribozyme fitness (log ratio)
121 | G42A U87A C89U | -2.26
122 | G42A G117U | -3.37
123 | G42A U55A C82G | -2.94
124 | G42C C101U | -1.45
125 | G42C G44U G63U C123A G128C | -3.33
126 | G42A G45U G57U C88U U130A | -3.68
127 | G42C G110C | -6.03
128 | A43C C123A | -2.65
129 | G42C G61A | -0.466
130 | A43C C115U | -3.33
131 | G42A G44U C73A | -1.69
132 | G42A G45U | -2.62
133 | A43C C70U C82A A91U G93U U96C C124G | -3.67
134 | G42C C49U C79A C102G G120A | -7.51
135 | G42C G63A C88U | -3.63
136 | G42C G57A C64A C85A G113U | -7.14
137 | A43C C76U C98U G117U | -7.18
138 | G42U G63C C76A G77U A90U G117C G127U G128C | -3.83
139 | G42A G44A G47U | -3.4
140 | G42A C80U | -2.64
141 | G42C C64U | -0.982
142 | A43C A74G C101A A111G | -3.37
143 | G42U G117A | -2.9
144 | A43C G61C U112A | -5.07

Row | Variant | polymerase ribozyme fitness (log ratio)
145 | G42A C82A U87A G93C C124G | -1.42
146 | A43C C70A C94U | -6.65
147 | G42C C62G | -4.74
148 | G42U A43U G63C U78C | -3
149 | G42U A74G C85A | -1.78
150 | A43C C62U U87G C88G A90C G127C U132C | -3.94
151 | G42U G77U | -1.86
152 | G42U C72G C94U G120U U131A | -2.67
153 | A41U U109C C114U G120U | -4.6
154 | G42C C88G | -3.51
155 | A43C G47U G69U | -1.43
156 | G42U A84G | -3.57
157 | G42C C94A | -2.23
158 | G42U G51C | -6.75
159 | G42U G93C U133A | -3.57
160 | G42U G52U U96A C124G | -1.76
161 | G42A C62U A84C | -3.09
162 | G42U C53U | -1.85
163 | G42U C53G | -1.45
164 | G42A G60U C114G U129C | -3.48
165 | A43C U55C C64U A84G G110U U125A | -6.14
166 | G42C G45U G48U U131G | -3.09
167 | G42A C124A | -0.186
